# Reference: the nanobody polyreactivity screen of Harvey et al. (2022)
# Assay: yeast display, Sf9 membrane polyspecificity reagent, FACS + sequencing; frameworks hold sequencing errors
# Method in brief: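 Nanobodies came from a synthetic yeast display library in Saccharomyces cerevisiae BJ5465, induced with galactose for 36–48 hours and stained for 1 hour at 4 °C with 10% biotinylated, detergent-solubilized Sf9 membrane reagent. Cells were enriched on streptavidin microbeads and then FACS-sorted, with low and high (top ~1%) gates set on anti-HA fluorescence for expression and streptavidin fluorescence for reagent binding. Each polyreactivity label reflects the gate a clone came from. Genes were amplified by colony PCR, sequenced by MiSeq 2 × 250 and filtered by CDR length.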
sequence,measurement,value
QVQLVESGGGLVQAGGSLRLICAASGRTFYSKTMGWSRQAPGKEREFVAAIPSIVGSTYYADSVKGRFTISRDNAKITVYFKMNSLKPEDTAVYYCAVTDYYSYQLRYDSSGQGTQVTVSS,polyreactivity (PSR sort gate),low polyreactivity
QVQLVESGGGLVQAGGSLRLSCAASGITFYRNARGWYRQAPGNEMELVAAITWNGGRTYYADSVKGRVTISRDNAKNTVDLQMNSLKPEDTAVYDCAADSGTRNLASYRYYYWGQGTLVTVSS,polyreactivity (PSR sort gate),low polyreactivity
QVQLVESGGGLVQAGGSLRLSCAATGSILEYYVMGWYRLAPGKERELVAAIRGGGSTYYADAVKGRFTISRDNAKNSVYLQMNSLKPEDTAVEYCAKDSQPARDFDYWGQGTQVTVSS,polyreactivity (PSR sort gate),low polyreactivity
QVQLVESGGGLVQEGGSLRLSCAASGRTFYRNAMGWYRQAPGKERELVAAISSDDSTNYADSVKGRFTISRDNAKNTVYLQMNSLKPEDTAVYYCNADYYYGYEYDYWGQGSQVTVSS,polyreactivity (PSR sort gate),low polyreactivity
QVQLVESGGGLVQAGGSLRLSCAASGRTFRSDNALGWYRQPPGKERELVAAISQGGGTYYADSVKGRFTISRDNAKKTVYLQMNSLKPEDTAVYYCARDAYYADPSLWYYTYDYWGQGTQVTVSS,polyreactivity (PSR sort gate),low polyreactivity
QVQLVESGGGLVQAGGSLRLSCAASGFIIGYYAMGWYRQAPGKERDLVAAISSTGGSTYYADSVKGRFTISRDNAMNTVYLQMNSLKPEDTAVYYCAKRFAYYRYHPGYDYWGQVTQVTVSS,polyreactivity (PSR sort gate),high polyreactivity
QVQLVESGGGLVQAGGSLRLSCAASGLIFAVYAMGWYRQAPGKERELVAGISASAASTYYADSVKGRFTISRDNAKNTVYLQMNSLKPEDTAVYYCVAVLPARGYYWGQGTQVTVSS,polyreactivity (PSR sort gate),high polyreactivity
QVQLVESGGGLVQAGGSLRLSCAASGRIFASYAMGWYRQAPGKERELVAAISAGGGSRTYYADSVKGRFTISRDNAKNTVYLQMNSLKPEDTAVYYCNTANSWQRQYYYWGQGTQVTVSS,polyreactivity (PSR sort gate),high polyreactivity
QVQLVDSGGGLVQAGGSHRLSCAASGSTFYGNLMGWYRQAPGRERELVAAISGGCSTNYADSVKGRFTISRDNEKNTVYLQLNSLKPEDTAVYYCAARGVIRVGNAARYVAGYYWGQGTQVTVSS,polyreactivity (PSR sort gate),high polyreactivity
QVQLVESGGGLVQAGGSLRLSCAASRFTFSGYAMGWYRQAPGKERELVATISSSGSTYADSVKGRFTISRDNAKNTVYLQMNSLKPEDTAVYYCAKRVPFFDYWGQGTQVTVSS,polyreactivity (PSR sort gate),low polyreactivity
QVQLVESGGGLVQAGGSLRLSCAASGSIFGGYDMGWYRQAPGTERELVAAITRDGDTNYADSVKGRFTISRDNAKNTVYLQMNSLKPEDTAVYYCAADRWLYSWFFNYDQGDYWGQGTQVTVSS,polyreactivity (PSR sort gate),low polyreactivity
QVQLVESGGGLVQAGGSLRLSCAASGSIFTFNAMGWYRQAPGKERELVASINWSGGSTYYADSVKGRFTISRDNAKNTVYLQMNSLKPEDTAVYYCNKRRNGYGSQFYYPYDYWGQGTQVTVSS,polyreactivity (PSR sort gate),low polyreactivity
QVQLVESGGGLVQAGGSLRLSCAASGSIFRNYAMGWYRQAPGKERELVARISYSGGRTHYADSVKGRFTISRDNAKNTVYLQMNSLKPEDTAVYYCAAPFHFTHFQGNYYWGQGTQVTVSS,polyreactivity (PSR sort gate),low polyreactivity
PVQLEESGGGLDQAGGSLRISCAASGRIFWAKAMGWYRQAPGKERELVAAINRRTGITYYADSVKGRFTISRDNAKNTVYFQMNSLKPEDTAVYYCAADWRTKCYDSLGQGTQVTVSS,polyreactivity (PSR sort gate),high polyreactivity
QVQLVESGGGLVQAGGSLSLSCAASGFIFYGYAMGWYRQAPGKEREIVAAISGRGDRTYYADSVKGRFTISRDNAKNTVYLQMNSLNPEDTAVYYCAALQLRYSGALWYDYWGQGTQVTVSS,polyreactivity (PSR sort gate),high polyreactivity
QVQLVESGGGLVQAGGSLRLSCAASGSIFSSNAMGWYRQAPGKERELVASIDGGPTTYADSVKGRFTISRDNAKNTVYLQMNSLKPEDTAVYFCKAVYAFNGYDYWGQGTQVTVSS,polyreactivity (PSR sort gate),low polyreactivity
QVQLVESGGGLVQAGGSLRLSCAASGFTIDNYAMGWYRHSPGKEMEVVAAINWSGDRMYYADSVKGRFTFSRDNAKNTVYLQMNSLKPEDTAVYYCAAPASRSQGPFPGYDYWGQGTQVTVSS,polyreactivity (PSR sort gate),high polyreactivity
